Patent US20180016354A1 (Merck KGaA, published 2018)
Positions count from the first letter of the chain named. Each block holds one binder with its values, some of them ahead of it.

Tests used:
CD16a receptor (FcγIIIa) [1] = target: T1, CD16a receptor (FcγIIIa) (UniProt P08637 17-254, limits assumed); experiment: CD16a HTRF cellular binding assay, competition with labeled human IgG
T1 construct: whole, on cells
Protocol: FIG. 14: Binding of antibodies to CD16a receptor. Binding was measured using CD16a HTRF cellular binding assay (CisBio). Measurement was performed in duplicates.

[2] = target: T2, EGFR (on EGFR-expressing A431 cells) (UniProt P00533 25-1210, limits assumed); experiment: flow cytometry on A431 cells
T2 construct: whole, on cells; A431 is a human cell line; also called EGFR-positive cells; EGFR-overexpressing A431 cells

[3] = target: T2, EGFR (on EGFR-expressing A431 cells); experiment: flow cytometry on EGFR-positive A431 cells
CD16a receptor (FcγIIIa) [4] = target: T1, CD16a receptor (FcγIIIa); experiment: cell-based or functional assay
[5] = target: T2, EGFR (on EGFR-expressing A431 cells); experiment: cell-based or functional assay

T1 sequence (P08637 17-254 limits assumed): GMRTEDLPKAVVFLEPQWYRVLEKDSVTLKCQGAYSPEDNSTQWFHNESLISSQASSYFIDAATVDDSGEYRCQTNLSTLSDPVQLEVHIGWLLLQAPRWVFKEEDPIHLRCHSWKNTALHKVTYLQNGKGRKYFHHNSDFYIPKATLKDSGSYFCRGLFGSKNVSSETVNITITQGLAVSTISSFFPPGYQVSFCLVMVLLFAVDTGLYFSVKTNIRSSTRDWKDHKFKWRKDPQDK

B1: One-armed anti-CD16 with the unengineered 3G8 Fab fused to the SEED AG heavy chain (antibody)
heavy: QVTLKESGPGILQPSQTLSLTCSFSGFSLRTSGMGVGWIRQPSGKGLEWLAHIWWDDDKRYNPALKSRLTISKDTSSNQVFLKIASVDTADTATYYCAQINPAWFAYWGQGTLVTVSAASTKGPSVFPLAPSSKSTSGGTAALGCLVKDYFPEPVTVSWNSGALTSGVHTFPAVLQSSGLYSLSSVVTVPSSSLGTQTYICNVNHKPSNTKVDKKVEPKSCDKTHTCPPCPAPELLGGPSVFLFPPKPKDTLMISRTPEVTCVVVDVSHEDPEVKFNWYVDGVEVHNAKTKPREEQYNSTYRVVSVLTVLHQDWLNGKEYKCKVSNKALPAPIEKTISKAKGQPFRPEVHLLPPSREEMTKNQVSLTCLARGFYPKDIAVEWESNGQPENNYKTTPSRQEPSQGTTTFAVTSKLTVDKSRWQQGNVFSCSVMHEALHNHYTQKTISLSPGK
chain: EPKSSDKTHTCPPCPAPELLGGPSVFLFPPKPKDTLMISRTPEVTCVVVDVSHEDPEVKFNWYVDGVEVHNAKTKPREEQYNSTYRVVSVLTVLHQDWLNGKEYKCKVSNKALPAPIEKTISKAKGQPREPQVYTLPPPSEELALNELVTLTCLVKGFYPSDIAVEWLQGSQELPREKYLTWAPVLDSDGSFFLYSILRVAAEDWKKGDTFSCSVMHEALHNHYTQKSLDRSPGK
light: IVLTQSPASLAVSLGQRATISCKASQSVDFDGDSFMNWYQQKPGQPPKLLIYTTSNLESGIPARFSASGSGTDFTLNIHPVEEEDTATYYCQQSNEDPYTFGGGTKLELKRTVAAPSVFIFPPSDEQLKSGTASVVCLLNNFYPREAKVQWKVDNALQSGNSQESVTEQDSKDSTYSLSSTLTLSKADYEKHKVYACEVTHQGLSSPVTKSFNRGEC
notes: One Fab arm only; also called one-armed anti-CD16 antibody
- IC50 (CD16a receptor (FcγIIIa) [1]): ~0.1 nM

B2: one-armed anti-EGFR SEED antibody with SEED CH3 domain-exchanged Fab, Variant 1 (antibody)
heavy: QVQLVQSGAEVKKPGASVKVSCKASGYTFTSHWMHWVRQAPGQGLEWIGEFNPSNGRTNYNEKFKSKATMTVDTSTNTAYMELSSLRSEDTAVYYCASRDYDYDGRYFDYWGQGTLVTVSSASTKGPEVHLLPPSREEMTKNQVSLTCLARGFYPKDIAVEWESNGQPENNYKTTPSRQEPSQGTTTFAVTSKLTVDKSRWQQGNVFSCSVMHEALHNHYTQKTISLSKSCDKTHTCPPCPAPELLGGPSVFLFPPKPKDTLMISRTPEVTCVVVDVSHEDPEVKFNWYVDGVEVHNAKTKPREEQYNSTYRVVSVLTVLHQDWLNGKEYKCKVSNKALPAPIEKTISKAKGQPFRPEVHLLPPSREEMTKNQVSLTCLARGFYPKDIAVEWESNGQPENNYKTTPSRQEPSQGTTTFAVTSKLTVDKSRWQQGNVFSCSVMHEALHNHYTQKTISLSPGK
light: DIQMTQSPSSLSASVGDRVTITCSASSSVTYMYWYQQKPGKAPKLLIYDTSNLASGVPSRFSGSGSGTDYTFTISSLQPEDIATYYCQQWSSHIFTFGQGTKVEIKRTVAEPQVYTLPPPSEELALNELVTLTCLVKGFYPSDIAVEWLQGSQELPREKYLTWAPVLDSDGSFFLYSILRVAAEDWKKGDTFSCSVMHEALHNHYTQKSLDRSGEC
chain: B1 chain
notes: hu425 Fv; one Fab arm only; also called CH3-SEED variant 1
- binding result [2]: binds

B3: one-armed anti-EGFR SEED antibody with SEED CH3 domain-exchanged Fab, Variant 2 (antibody)
heavy: QVQLVQSGAEVKKPGASVKVSCKASGYTFTSHWMHWVRQAPGQGLEWIGEFNPSNGRTNYNEKFKSKATMTVDTSTNTAYMELSSLRSEDTAVYYCASRDYDYDGRYFDYWGQGTLVTVSSASTKGEPQVYTLPPPSEELALNELVTLTCLVKGFYPSDIAVEWLQGSQELPREKYLTWAPVLDSDGSFFLYSILRVAAEDWKKGDTFSCSVMHEALHNHYTQKSLDRSKSCDKTHTCPPCPAPELLGGPSVFLFPPKPKDTLMISRTPEVTCVVVDVSHEDPEVKFNWYVDGVEVHNAKTKPREEQYNSTYRVVSVLTVLHQDWLNGKEYKCKVSNKALPAPIEKTISKAKGQPFRPEVHLLPPSREEMTKNQVSLTCLARGFYPKDIAVEWESNGQPENNYKTTPSRQEPSQGTTTFAVTSKLTVDKSRWQQGNVFSCSVMHEALHNHYTQKTISLSPGK
light: DIQMTQSPSSLSASVGDRVTITCSASSSVTYMYWYQQKPGKAPKLLIYDTSNLASGVPSRFSGSGSGTDYTFTISSLQPEDIATYYCQQWSSHIFTFGQGTKVEIKRTVAPEVHLLPPSREEMTKNQVSLTCLARGFYPKDIAVEWESNGQPENNYKTTPSRQEPSQGTTTFAVTSKLTVDKSRWQQGNVFSCSVMHEALHNHYTQKTISLSGEC
chain: B1 chain
notes: hu425 Fv; one Fab arm only; also called CH3-SEED variant 2
- binding result [2]: binds

B4: Unengineered one-armed anti-EGFR antibody (CH1/CL hu425 Fab on SEED AG heavy chain, with huFc_GA SEED) (antibody)
heavy: QVQLVQSGAEVKKPGASVKVSCKASGYTFTSHWMHWVRQAPGQGLEWIGEFNPSNGRTNYNEKFKSKATMTVDTSTNTAYMELSSLRSEDTAVYYCASRDYDYDGRYFDYWGQGTLVTVSSASTKGPSVFPLAPSSKSTSGGTAALGCLVKDYFPEPVTVSWNSGALTSGVHTFPAVLQSSGLYSLSSVVTVPSSSLGTQTYICNVNHKPSNTKVDKKVEPKSCDKTHTCPPCPAPELLGGPSVFLFPPKPKDTLMISRTPEVTCVVVDVSHEDPEVKFNWYVDGVEVHNAKTKPREEQYNSTYRVVSVLTVLHQDWLNGKEYKCKVSNKALPAPIEKTISKAKGQPFRPEVHLLPPSREEMTKNQVSLTCLARGFYPKDIAVEWESNGQPENNYKTTPSRQEPSQGTTTFAVTSKLTVDKSRWQQGNVFSCSVMHEALHNHYTQKTISLSPGK
chain: B1 chain
light: DIQMTQSPSSLSASVGDRVTITCSASSSVTYMYWYQQKPGKAPKLLIYDTSNLASGVPSRFSGSGSGTDYTFTISSLQPEDIATYYCQQWSSHIFTFGQGTKVEIKRTVAAPSVFIFPPSDEQLKSGTASVVCLLNNFYPREAKVQWKVDNALQSGNSQESVTEQDSKDSTYSLSSTLTLSKADYEKHKVYACEVTHQGLSSPVTKSFNRGEC
notes: One Fab arm only (monovalent); also called unengineered Fab one-armed anti-EGFR; control antibody
- binding result [2]: binds

B6: Effector Negative (EN) isotype domain-exchanged bispecific antibody BsAb2 (anti-CD16× anti-EGFR CH3-KiH), BsAb2 EN (bispecific antibody, human IgG1, kappa)
heavy 1: QVQLVQSGAEVKKPGASVKVSCKASGYTFTSHWMHWVRQAPGQGLEWIGEFNPSNGRTNYNEKFKSKATMTVDTSTNTAYMELSSLRSEDTAVYYCASRDYDYDGRYFDYWGQGTLVTVSSASTKGEPQVYTLPPSRDELTKNQVSLYCLVKGFYPSDIAVEWESNGQPENNYKTTPPVLDSDGSFFLYSKLTVDKSRWQQGNVFSCSVMHEALHNHYTQKSLSLSKSCDKTHTCPPCPAPPVAGPSVFLFPPKPKDTLMISRTPEVTCVVVDVSHEDPEVQFNWYVDGVEVHNAKTKPREEQAQSTFRVVSVLTVVHQDWLNGKEYKCKVSNKGLPAPIEKTISKTKGQPFRPEVHLLPPSREEMTKNQVSLTCLARGFYPKDIAVEWESNGQPENNYKTTPSRQEPSQGTTTFAVTSKLTVDKSRWQQGNVFSCSVMHEALHNHYTQKTISLSPGK
heavy 2: not shown
light 1: DIQMTQSPSSLSASVGDRVTITCSASSSVTYMYWYQQKPGKAPKLLIYDTSNLASGVPSRFSGSGSGTDYTFTISSLQPEDIATYYCQQWSSHIFTFGQGTKVEIKRTVAEPQVYTLPPSRDELTKNQVSLTCLVKGFYPSDIAVEWESNGQPENNYKTTPPVLDSDGSFFLTSKLTVDKSRWQQGNVFSCSVMHEALHNHYTQKSLSLSGEC
light 2: not shown
notes: also called EN BsAb2; effector negative IgG2 variant of BsAb2
- EC50 of lysis of A431 cells by redirected NK cells (LDH release) (CD16a receptor (FcγIIIa) [4]): 0.037 nM
- lysis of A431 cells by redirected NK cells (LDH release) (CD16a receptor (FcγIIIa) [4]): ≤ 50%
- EC50 of lysis of A431 cells by redirected NK cells (LDH release) [5]: 0.037 nM
- lysis of A431 cells by redirected NK cells (LDH release) [5]: ≤ 50%
- IC50 (CD16a receptor (FcγIIIa) [1]): ~3.6 nM

B7: one-armed domain-exchanged KiH antibody with Charge pair CH3 domains in the Fab, Variant 1 (antibody)
heavy: not shown
light: B6 light 1 with D122E, L124M, K158D, T173Y, K175D
chain: not shown
notes: hu425 Fv; one Fab arm only; also called one-armed KiH antibody, Charge pair variant 1
- binding result [3]: binds

Further lines, results first:

- binding result [3]: binds
B5: one-armed domain-exchanged KiH antibody with SEED CH3 domains in the Fab, Variant 1 (antibody)
heavy: not shown
light: B2 light
chain: not shown
notes: hu425 Fv; one Fab arm only; also called one-armed KiH antibody, CH3-SEED variant 1

- EC50 of lysis of A431 cells by redirected NK cells (LDH release) (CD16a receptor (FcγIIIa) [4]): 0.01 nM
- lysis of A431 cells by redirected NK cells (LDH release) (CD16a receptor (FcγIIIa) [4]): ≤ 50%
- EC50 of lysis of A431 cells by redirected NK cells (LDH release) [5]: 0.01 nM
- lysis of A431 cells by redirected NK cells (LDH release) [5]: ≤ 50%
- IC50 (CD16a receptor (FcγIIIa) [1]): ~0.3 nM
B8: domain-exchanged bispecific antibody 2, BsAb2 (anti-CD16× anti-EGFR CH3-KiH) (bispecific antibody, human IgG1, kappa)
heavy 1: QVQLVQSGAEVKKPGASVKVSCKASGYTFTSHWMHWVRQAPGQGLEWIGEFNPSNGRTNYNEKFKSKATMTVDTSTNTAYMELSSLRSEDTAVYYCASRDYDYDGRYFDYWGQGTLVTVSSASTKGEPQVYTLPPSRDELTKNQVSLYCLVKGFYPSDIAVEWESNGQPENNYKTTPPVLDSDGSFFLYSKLTVDKSRWQQGNVFSCSVMHEALHNHYTQKSLSLSKSCDKTHTCPPCPAPELLGGPSVFLFPPKPKDTLMISRTPEVTCVVVDVSHEDPEVKFNWYVDGVEVHNAKTKPREEQYNSTYRVVSVLTVLHQDWLNGKEYKCKVSNKALPAPIEKTISKAKGQPFRPEVHLLPPSREEMTKNQVSLTCLARGFYPKDIAVEWESNGQPENNYKTTPSRQEPSQGTTTFAVTSKLTVDKSRWQQGNVFSCSVMHEALHNHYTQKTISLSPGK
heavy 2: not shown
light 1: B6 light 1
light 2: not shown
notes: hu425 Fv in the domain-exchanged Fab arm, murine 3G8 (anti-CD16) Fv in the native Fab arm; also called effector positive BsAb2 variant

- binding result [3]: binds
B9: one-armed domain-exchanged KiH antibody with Charge pair CH3 domains in the Fab, Variant 2 (antibody)
heavy: not shown
light: B6 light 1 with D122K, L124M, D165K, T173Y
chain: not shown
notes: hu425 Fv; one Fab arm only; also called one-armed KiH antibody, Charge pair variant 2

- binding result [3]: binds
B10: one-armed domain-exchanged KiH antibody with Azymetric CH3 domains in the Fab, Variant 1 (antibody)
heavy: not shown
light: B6 light 1 with T116V, D122E, L124M, T132L, K158L, T160W, T173Y
chain: not shown
notes: hu425 Fv; one Fab arm only; also called one-armed KiH antibody, CH3-Azymetric variant 1

- binding result [3]: binds
B11: one-armed domain-exchanged KiH antibody with Azymetric CH3 domains in the Fab, Variant 2 (antibody)
heavy: not shown
light: B6 light 1 with T116V, L117Y, D122E, L124M, F171A, T173V
chain: not shown
notes: hu425 Fv; one Fab arm only; also called one-armed KiH antibody, CH3-Azymetric variant 2

- binding result [3]: binds
B12: one-armed domain-exchanged KiH antibody with SEED CH3 domains in the Fab, Variant 2 (antibody)
heavy: not shown
light: B3 light
chain: not shown
notes: hu425 Fv; one Fab arm only; also called one-armed KiH antibody, CH3-SEED variant 2
